# Test results published in the DeepSol protein solubility set.
# Assay: soluble on expression in E. coli; label from the status in PepcDB or PDB records
row,Sequence,soluble on expression in E. coli
1,MADENHVRLSEVQLIQSEFGHSLEECYKLAVQYYKKEHVGKQEPVGYEDRIKLLSLSKQVQHGEISDEFDNAGWLDITGNDVNKAWRELGSLSRDEAMASFVFLVDRVCPPFKGFIADKKAIKDAELKEFAPQVTEQSAQPPSLQQVDQRLFEDQRKQIQEALNAQTFHQFSAYAQEQFPGQPEQQTTLIRQLQEQHYQQYMSQVYAQQSTTPNGAEMNPEESHQHQIRRDDDSDVSDDEAGEDLPSNPAISPASLWNRQDINEFKANIKKDGHEGIIKVGHGETVTVRVPTHENGSCLFWEFATDHYDIGFGVYFEWTVADSNQVSVHVSESDDEEDYDEALEAEQAEAGGGGGGAAGQGGPGDVEAGAMQTRRVDPNKPRQDEIIPVYRRDCHEEVYAGSHRYPGRGIYLLKFDNSYSLWRSKTLYYRVYYSK,soluble
2,MADLSSRVNELHDLLNQYSYEYYVEDNPSVPDSEYDKLLHELIKIEEEHPEYKTVDSPTVRVGGEAQASFNKVNHDTPMLSLGNAFNEDDLRKFDQRIREQIGNVEYMCELKIDGLAVSLKYVDGYFVQGLTRGDGTTGEDITENLKTIHAIPLKMKEPLNVEVRGEAYMPRRSFLRLNEEKEKNDEQLFANPRNAAAGSLRQLDSKLTAKRKLSVFIYSVNDFTDFNARSQSEALDELDKLGFTTNKNRARVNNIDGVLEYIEKWTSQRESLPYDIDGIVIKVNDLDQQDEMGFTQKSPRWAIAYKFPAEEHHHHHH,soluble
3,MADNLSDTLKKLKITAVDKTEDSLEGCLDCLLQALAQNNTETSEKIQASGILQLFATLLTPQSSCKAKVANIIAEVAKNEFMRIPCVDAGLISPLVQLLNSKDQEVLLQTGRALGNICYDSHEGRSAVDQAGGAQIVIDHLRSLCSITDPANEKLLTVFCGMLMNYSNENDSLQAQLINMGVIPTLVKLLGIHCQNAALTEMCLVAFGNLAELESSKEQFASTNIAEELVKLFKKQIEHDKREMIFEVLAPLAENDAIKLQLVEAGLVECLLEIVQQKVDSDKEDDITELKTGSDLMVLLLLGDESMQKLFEGGKGSVFQRVLSWIPSNNHQLQLAGALAIANFARNDANCIHMVDNGIVEKLMDLLDRHVEDGNVTVQHAALSALRNLAIPVINKAKMLSAGVTEAVLKFLKSEMPPVQFKLLGTLRMLIDAQEAAEQLGKNVKLVERLVEWCEAKDHAGVMGESNRLLSALIRHSKSKDVIKTIVQSGGIKHLVTMATSEHVIMQNEALVALALIAALELGTAEKDLESAKLVQILHRLLADERSAPEIKYNSMVLICALMGSECLHKEVQDLAFLDVVSKLRSHENKSVAQQASLTEQRLTVES,not soluble
4,MADQYHEPVSELTGKDRDFVRALNSLKEEIEAVAWYHQRVVTTKDETVRKILEHNRDEEMEHAAMLLEWLRRNMPGWDEALRTYLFTDKPITEIEEETSGGSENTGGDLGIRKL,soluble
5,MADSAQDLAFTAENFESLLNEQLGESGGLEGSVLTGTVIGVSGDFAVVDVGLKSEGRVPLKEFSRGGDDAEIKIGDTVDVFVERYEDKDGLIVLSRDKARREEAWNELEKAFNDNQRVRGLIHSRVKGGFTVDLSGAIAFLPGSQVDIRPVRDIGPLLGQPQVFQILKMDRARGNIVVSRRAVLEETRAEERSKLMETLREGEILEGVVKNITDYGAFVDLGGVDGLLHVTDISWKRINHPTEALSIGQTVKVQVIRFNAETQRISLGMKQLEADPWEGVAAKYPVGTKFVGRVTNITDYGAFVELEPGVEGLVHVSEMSWTKKNVHPGKIVSTSQEVEVMILDVDPDKRRISLGLKQTMANPWSEFLEGHPIGTEVEGEIKNITEFGLFIGLTGDIDGMIHLSDLDWNRSGDEAVKDYKKGDVVQAKVLDVDVEKERISLGVKQLGEDPYREATADLRKNQIVTCVITMVQENGIEVDVNGAIGFIRKSDLARERADQRPERFAVGEKVDAKVINMDKSNRRMTLSIKAREMDEEKQAMAEYGSADSGASLGDILGAALKQAQEKARTGDDELEHHHHHH,not soluble
6,MADTIEVDGKQFAVDEEGYLSNLNDWVPGVADVMAKQDNLELTEEHWDIINFLREYYEEYQIAPAVRVLTKAVGKKLGKEKGNSKYLYSLFPYGPAKQACRFAGLPKPTGCV,soluble
7,MAEICLITGTPGSGKTLKMVSMMANDEMFKPDENGIRRKVFTNIKGLKIPHTYIETDAKKLPKSTDEQLSAHDMYEWIKKPENIGSIVIVDEAQDVWPARSAGSKIPENVQWLNTHRHQGIDIFVLTQGPKLLDQNLRTLVRKHYHIASNKMGMRTLLEWKICADDPVKMASSAFSSIYTLDKKVYDLYESAEVHT,soluble
8,MAEIFRIPEEKFRDKVHKSLEENVTWVERETGRLPSYEEVEEFLVEEFSKVIPFEGEEPVPEEAIELADKLKEEFTSEEVLLEDTGRKHRAIKLREGVYLRTAVHKAQGGLIRTEVYTDGEVIERVKIYGDFTLYPKESLKELEEKLKGIKFEPEEIKKVAHEFLQKVDMPGVSAEDLVIAIYG,soluble
9,MAELRSFIFIDRLQPQTMSYLGTWIKGALPRANMAAQIIEVAPGLDIEGVTDVALKHAEVKAGILVVERQFGYLEFHGETGAVKAAADAALDYLGGDPDAAVRPEILASRIISSIDHQHAFLINRNKIGSMVLPGESLFVLEVAPASYAILATNEAEKAADVKVVDFRMIGATGRVYLSGTEADVRQAADAARDALAVLQGA,soluble
10,MAEQQQEQQIRVRIPRKEENEILGIIEQMLGASRVRVRCLDGKTRLGRIPGRLKNRIWVREGDVVIVKPWEVQGDQKCDIIWRYTKTQVEWLKRKGYLDELL,soluble
11,MAEREVRSTAYQLNAARFPLYRDLAGFDFASSEINEALVRQLHRCEFMDQANNVVLVGGPGTGKTHITTALGVRAVEHQCKRVRFFSTVEFVNVLEQEGPRAGQIANRLAHSDLVILNELGYLPFSASGGALLFHLLSTLYGRAPASSSPLKLISASASGLP,not soluble
12,MAERLLQSMSRVAGRCHPDCVKASDEQEDYHASQNAALVAVNLISSARLILKLDAEFTEYSAQFLMDNAGKEDDPGEVDQQRNQVTTENCLRYLAENVWTKKENGQGGMDQQRPVLTVKDCLELAFKKGLPRREHWAHLGCTFKAPPFACQIPRVPVKGEVVEVKTFDEAFKLLVHQPIGAKLHLFSPQIDNVGEGVYKGLTTGNETHYVGLRDVLIASVEEFEGDSVAIVKICYKKKLSFIKVSLSVRFLSVAHDGDKSKFIAPTGLLVDFCVPRLSIN,soluble
13,MAEVHVRELKGWEEMEEVVALQREVWGRAESDLVPRGLLVAVQDEGGLVAGAFAEGRMVGFVFGFPTKDPALHHSHMLGVLEAYRGTGAALLLKRFQRDWCLARGVRRVVWTFDPMRGVNANFNLRKLGATAKTYLPDHYGPMSGINAGAPSDRLLAEWDLLSERVYARLYAPPPEPEVAGLPQANRVEGEVPLEARLDLEAERLLFQIPEDWGRILREDPALALKWREHSRLVLPHYFARGYRLVDLVRHPNRYVLAKD,soluble
14,MAEWCADHLRNCEGWKSAGLELSTTSDENAKWLDACIRQLVSWSDCTSLGGFHTSIEKLVASDPEAIMARTFLVGLSGLGTEAAARNVEFAKKMDQLEIDAEKYGNAREKRHAKAAILWGRGKHHEAAIEWDKLLDDYPTDLIAVKFSHDAHFFNGNQIGKKNAIEKVIHKWNADLPCYSYLHGMYAFGLEECGIYDDAETQADRALQLNRFDCWASHAKAHVLEMNGRHKEGKEFMYKTEDDWRQGWMLASHNYWHTALFHIEYAEYESALGIFDREIANRFNKTNSLLDMVDASSLLWRLELEGVNVGRDRWRKIEHLSKFIDNHSIVFNDVHLGLAIYRQEDLETEKKLRNSLEKYSSLLSEDNAQISKTIGMPLYDGMLDFARCDYDTAAETMYPIRDKVVQIGGSHAQRDLFVQTLIQSCILSKDPKNWALTPELLVERETLKHDSLLGQRLADKFRALHPL,not soluble
15,MAFEESLVMVSSLSRLSICTSSAYDEAATKNQPDSCVSTSLENFDGAEADGEVSDDGEGKENVRESDSDKETRGFYSLPVTPSRRRRKLTVSGELDANESNKNGSKCSLRRQRREKKKKGVNGECDVGGREGLTVLTRARGGDRSLRMGLQEVKACRDLGFELEVPVPGRISVSTTGSNFDTQTSSGGDSPIATWRISSPGDDPKEVKARLKVWAQAVALASATRQAS,not soluble
